Literature values as cited in patent US20240156960A1 (priority 2020, published 2024).
Positions count from the first letter of the chain named.

B1: C101 (antibody, listed as Homo sapiens, V domains shown)
VH: QVQLVESGGGLIQPGGSLRLSCAASGFIVSSNYMSWVRQAPGKGLEWVSVIYSGGSTFYTDSVKGRFTISRDNSKNTLYLQMNSLRAEDTAVYYCVRDYGDFYFDYWGQGTLVTVSS
VL: EIVLTQSPGTLSLSPGERATLSCRASQSVSSSYLAWYQQKPGQAPRLLIYGASSRATGIPDRFSGGGSETDFTLTISRLEPEDCAVYYCQQYGSSPRTFGQGTKVEIK
B2: C104 (antibody, listed as Homo sapiens, V domains shown)
VH: QVQLQQWGAGLLKPSETLSLSCAVYGGSLSGYYWSWIRQPPGKGLEWIGEINHFGSTGYNPSLKSRVTISVDTSKSQFSVKLSSVTAADTAVYYCARKPLLYSNLSPGAFDIWGQGTMVTVSS
VL: B1 VL with L11V, R24W, S31A, G66S, E69G, C84F, S94T, S95T, Q101G
B3: C122 (antibody, listed as Homo sapiens, V domains shown)
VH: EVQLVESGGGLIQPGGSLRLSCAASGLTVSSNYMSWVRQAPGKGLEWVSVLYSGGSSFYADSVKGRFTISRDNSKNTLYLQMNSLRAEDTAVYYCARESGDTTMAFDYWGQGTLVTVSS
VL: DIQLTQSPSFLSASVGDRVTITCRASQGISSYLAWYQQKPGKAPKLLIYAASTLQSGVPSRFSGSGSGTEFTLTISSLQPEDFATYYCQQLNSDSYTFGQGTKLEIK
B4: C123 (antibody, listed as Homo sapiens, V domains shown)
VH: EVQLVESGGGLIQPGGSLRLSCAASGVTVSRNYMSWVRQAPGKGLEWVSVIYSGGSTYYADSVKGRFTISRDNSKNTLYLQMNSLRAEDTAVYYCARDLSAAFDIWGQGTMVTVSS
VL: B3 VL with D94Y, S95P, Y96P, T97A, K103R
B5: C103 (antibody, listed as Homo sapiens, V domains shown)
VH: QVQLQQWGAGLLKPSETLSLTCAVSGGSLSGFYWTWIRQPPGKGLEWIGETNHFGSTGYKPSLKSRVTISVDMSRNQFSLKVTSVTAADTAVYYCARKPLLYSDFSPGAFDIWGQGTMVTVSS
VL: EIVLTQSPGTLSLSPGERATLSCRASQTVTANYLAWYQQKPGQAPRLLIYGASKRATGIPDRFSGSGSGTDFTLSISRLEPEDFAVYYCQQYTTTPRTFGGGTKVEIK
B6: C108 (antibody, listed as Homo sapiens, V domains shown)
VH: QVQLQESGPGLVKPSGTLSLTCAVSGGSISSTNWWSWVRQPPGKGLEWIGEIYHTGSTNYNPSLKSRVTISVDKSKNQFSLKLSSVTAADTAVYYCVRDGGRPGDAFDIWGQGTMVTVSS
VL: QSALTQPASVSGSPGQSITISCTGTSSDVGGYNYVSWYQQHPGKAPKLMIYDVSNRPSGVSNRFSGSKSGNTASLTISGLQAEDEADYYCNSYTSSSTRVFGTGTKVTVL
B7: C124 (antibody, listed as Homo sapiens, V domains shown)
VH: EVQLVESGGGLVQPGGSLRLSCAASGFTFSGYSMNWVRQAPGKGPEWVSYISRSSSTIYYADSVKGRFTISRDNAKNSLYLQMNSLRDEDTAVYYCAREGARVGATYDTYYFDYWGQGTLVTVSS
VL: EIVLTQSPATLSLSPGERATLSCRASQSFSSYLAWYQQKPGQAPRLLIYDASNRATGIPARFSGSGSGTDFTLTISSLEPEDFAVYYCQQRNNWPPEWTFGQGTKVEIK
B8: C110 (antibody, listed as Homo sapiens, V domains shown)
VH: QVQLQQSGAEVKKPGESLKISCKGSGYSFTSYWIGWVRQMPGKGLEWMGIIYPGDSDTRYSPSFQGQVTISADKSISTAYMQWSSLKASDTAMYYCARSFRDDPRIAVAGPADAFDIWGQGTMVTVSS
VL: DIQMTQSPSTLSASVGDRVTITCRASQSISYWLAWYQQKPGKAPKLLIYQASSLESGVPSRFSGSESGTEFTLTISSLQPDDFATYYCQQYNSYPYTFGQGTKLEIK
B9: C105 (antibody, listed as Homo sapiens, V domains shown)
VH: QVQLVESGGGLIQPGGSLRLSCAASGFTVSSNYMSWVRQAPGKGLEWVSVIYSGGSTYYADSVKGRFTISRDNSKNTLYLQMNSLRAEDTAVYYCARGEGWELPYDYWGQGTLVTVSS
VL: QSALTQPPSASGSPGQSVTISCTGTSSDVGGYKYVSWYQQHPGKAPKLMIYEVSKRPSGVPDRFSGSKSGNTASLTVSGLQAEDEADYYCSSYEGSNNFVVFGGGTKLTVL
B10: C117 (antibody, listed as Homo sapiens, V domains shown)
VH: QVQLVESGGGVVQPGRSLRLSCAASGFTFSTYAMHWVRQAPGEGLEWVAVISYDGSNTYYADSVKGRFTISRDNSKNTLYLQMNSLRAEDTAVYYCARDPIWFGELLSPPFVHFDYWGQGTLVTVSS
VL: QSVLTQPPSVSAAPGQKVTISCSGSSSNIGNNLVSWYQQLPGTAPKLLIYENNKRPSGIPDRFSGSKSGTSATLGITGLQTGDEADYYCGAWDSSLSAGGVYVFGTGTKVTVL
B11: C115 (antibody, listed as Homo sapiens, V domains shown)
VH: QVQLVESGGGLIKPGRSLRLSCTASGFTFGDYAMTWFRQAPGKGLEWVGFIRSKAYGGTTGYAASVKYRFTISRDDSKSIAYLQMDSLKTEDTAVYYCTRWDGWSQHDYWGQGTLVTVSS
VL: DIVMTQSPLSLSVTPGEPASISCRSSQSLLHSNGNNYFDWYLQKPGQSPQLLIYLGSNRASGVPDRFSGSGSGTDFTLKISRVEAEDVGVYYCMQVLQIPYTFGQGTKLEIK
B12: C120 (antibody, listed as Homo sapiens, V domains shown)
VH: EVQLVESGGGLIQPGGSLRLSCAASGFTVSSNYMTWVRQAPGKGLEWVSLIYPGGSTYYADSVKGRFTISRDNSKNTLYLQMNSLRAEDTAVYYCAREGMGMAAAGTWGQGTLVTVSS
VL: AIRMTQSPSSLSASVGDTVTITCQASQDISKYLNWYQQKPGKAPKLLIYDASNLETGVPSRFSGSGSGTDFTFTISSLQPEDIATYYCQQYDNLPQTFGGGTKVEIK
B13: C017 (antibody, listed as Homo sapiens, V domains shown)
VH: EVQLVESGGGLVQPGRSLRLSCAASGFTFDDYAMHWVRQAPGKGLEWVSGISWNSGTIGYADSVKGRFTISRDNAKNSLYLQMNSLRAEDTAFYYCAKAGVRGIAAAGPDLNFDHWGQGTLVTVSS
VL: EIVLTQSPATLSLSPGERATLSCRASQSVSSYLAWYQQKPGQAPRLLIYDASNRATGIPARFSGSGSGTDFTLTISSLEPEDFAVYYCQQRITFGQGTRLEIK
B14: 2M-4G4 (antibody, listed as Homo sapiens, V domains shown)
VH: EVQLVESGAEVKKPGASVKVSCKASGYTFTSYYIHWVRQAPGQGLEWMGVINPSGGSTTYAQKFQGRVTVTRDTSTSTVYMELSSLRSEDTAVYYCARERGDSSGYYEIITTANRRFGMDVWGQGTTVTVSS
VL: QSVLTQPASVSGSPGQSITISCTGTSSDVGMYNLVSWYQQHPGQAPKLMIYEGSKRPSGVSNRFSGSKSGNTASLTISGLQAEDEAYYYCCSYAVSSTWVFGGGTKLTVL
B15: 2M-7E9 (antibody, listed as Homo sapiens, V domains shown)
VH: EVQLVESGAEVKKPGSSVKVSCKASGGTFSSFAISWVRQAPGQGLEWMGGIIPIFDTTNYAQKFQGRVTITADESTRTAYMELSSLRSEDTAVYYCARIPGWDRGTDRNWNDDWGQGTTVTVSS
VL: B7 VL with E1D, L4M, F29V, S31N, Y32F, N92S, E97A, W98F, Q102P

Molecular target: SARS-CoV2 S; RBD (Severe acute respiratory syndrome coronavirus 2, UniProt P0DTC2)
Conditions: epitope S

Molecule | Binds to
B1 | SARS-CoV2
B2 | SARS-CoV2
B3 | SARS-CoV2
B4 | SARS-CoV2
B5 | SARS-CoV2
B6 | SARS-CoV2
B7 | SARS-CoV2
B8 | SARS-CoV2
B9 | SARS-CoV2
B10 | SARS-CoV2
B11 | SARS-CoV2
B12 | SARS-CoV2
B13 | SARS-CoV2

System: SARS-CoV2
Conditions: not given

Molecule | Binds to
B14 | SARS-CoV2
B15 | SARS-CoV2
